Data: patent US8703915B2, “Mutant proteins and methods for producing them” (Heptares Therapeutics Limited, priority 2009, dated 2014)
Where a chain is given by its changes, count along the chain named. In names and notes the source's numbering stands.

Assays:
[1] = biological target: neurotensin receptor NTS1 (Rattus norvegicus, UniProt P20789, Y369A); assay: Two point thermostability assay, neurotensin agonist binding to NTS1 alanine scan mutants; assay type: physicochemical
Source text: An alanine scan has been carried out on the rat neurotensin receptor NTS1 in the presence of the agonist neurotensin in order to stabilise the agonist conformation.

CRF1 [2] = biological target: T1, CRF1 (Homo sapiens, UniProt P34998, I163A); assay: Thermostability of CRF1 bound to antagonist CP-376395, purified in DDM; assay type: physicochemical; conditions: antagonist CP-376395 bound, versus CRF1 WT
T1 construct: made in house; host or cells: HEK293T cells, transient
T1 sequence (P34998 24-415 I163A): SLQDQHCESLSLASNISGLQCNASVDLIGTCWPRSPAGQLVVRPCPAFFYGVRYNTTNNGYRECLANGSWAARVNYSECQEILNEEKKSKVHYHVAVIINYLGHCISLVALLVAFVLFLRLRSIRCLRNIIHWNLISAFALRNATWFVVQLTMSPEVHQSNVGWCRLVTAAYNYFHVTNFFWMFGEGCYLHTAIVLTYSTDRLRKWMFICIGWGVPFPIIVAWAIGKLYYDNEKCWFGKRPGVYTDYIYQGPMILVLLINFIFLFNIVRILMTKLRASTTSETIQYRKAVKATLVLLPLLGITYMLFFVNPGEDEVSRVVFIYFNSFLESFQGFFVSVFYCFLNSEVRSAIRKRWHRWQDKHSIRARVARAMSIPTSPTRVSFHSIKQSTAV
Method: (§1) In order to stabilise CRF1 in the antagonist conformation, a systematic alanine-scan was performed to identify mutations that stabilise receptors bound to the antagonist ligand CP-376395. Mutating I2.58 to alanine (I163A) confers significant stabilisation in CRF1, increasing the thermal stability by 3.9 (±0.5)° C. (FIG. 15).
(§2) CRF1 receptors were transiently expressed in HEK293T cells on 10 cm plates using GeneJuice transfection reagent used according to manufacturers guidelines.
(§3) Cells expressing CRF1 were harvested in PBS approximately 40 hours post-transfection and re-suspended in 950 μl Re-suspension buffer (50 mM Tris-HCl, 150 mM NaCl, 2× Complete EDTA-free Protease inhibitor cocktail (Roche), pH7.5). Cells were incubated with 120 nM CP-376395 and 30 nM [^3H]-CP-376395 at 37° C. for 2 hours before transferring to ice for 5 minutes. The receptors were solubilised by the addition of 1% DDM and incubated at 4° C. for 1 hour with gentle agitation. Insoluble material was removed by centrifugation at 16000×g for 10 minutes at 4° C. The solubilised receptors were partially purified with Ni-NTA agarose (Qiagen). Ni-NTA resin was equilibrated in Equilibration buffer (50 mM Tris-HCl, 150 mM NaCl, 2× Complete EDTA-free Protease inhibitor cocktail (Roche), 0.025% DDM, pH7.5) and 400 μl of a 50:50 resin slurry was added to each sample. Resin slurries were incubated at 4° C. for 1 hour 30 minutes with gentle agitation to bind receptors. Resin slurries were then transferred to a batch column filter plate (Chromabond) and centrifuged at 1000×g for 1 minute, discarding the flow-through. Resin was washed twice with 1 ml of Wash buffer (50 mM Tris-HCl, 150 mM NaCl, 2× Complete EDTA-free Protease inhibitor cocktail (Roche), 0.025% DDM, 20 mM Imidazole, pH7.5) and then eluted in 1 ml of Elution buffer (50 mM Tris-HCl, 150 mM NaCl, 2× Complete EDTA-free Protease inhibitor cocktail (Roche), 0.025% DDM, 100 mM histidine, 30 nM [^3H]-CP-376395, 120 nM CP-376395, pH7.5) by resuspension at 4° C. for 30 minutes. Eluted samples were used directly in the thermostability assay. […]

CRF1 [3] = assay: as above; assay type: physicochemical, human; conditions: antagonist-bound state (CP-376395), purified in DDM
Method: as §1, §2, §3

OX2 receptor [4] = assay: Thermostability of OX2 receptor bound to antagonist EMPA; assay type: physicochemical, human; conditions: bound to antagonist EMPA
Method: (§4) Transiently transfected mammalian cells expressing M4 were harvested about 40 hours post transfection and the receptors were solubilised in 50 mM Tris pH 7.5/250 mM NaCl/1% DDM/EDTA free protease inhibitor mix for 1 hour rotating at 4° C. The solubilised lysate was then cleared by centrifugation at 13000 rpm for 15 minutes at 4° C. The solubilised receptors were then purified on Ni-NTA beads and eluted with 100 mM histidine. The eluted receptor was used in radioligand binding assay. Thermostability of M4 was measured using 25 μL of purified receptor mixed with 95 μL of 12 nM [^3H]-NMS (final concentration of 10 nM). The sample was incubated for 60 min at 4° C., then 30 min at the specified temperature and then 30 min at 4° C. Receptor bound and free radioligand were separated using a 96-well plate gel filtration assay.
(§5) A tandem alanine and leucine scanning mutagenesis strategy was used to identify mutations that enhanced the thermostability of OX2 bound to the small-molecule antagonist EMPA.
(§6) Thermostability assays were preformed on partially purified receptors as described for M4, with the following amendments. Cell lysates were solubilised in 50 mM Tris pH7.4, 150 mM NaCl, 1% DDM supplemented with 1× complete EDTA free protease inhibitor cocktail (Roche). Radioligand binding reactions were set up using 1/10 volume eluted receptor mixed with 20 nM ^3H-EMPA (final concentration) per temperature point.

OX2 receptor [5] = biological target: T2, OX2 receptor (Homo sapiens, UniProt O43614, F28L/I308V/Y91L); assay: as above; assay type: physicochemical; conditions: antagonist EMPA bound, compared to WT OX2
T2 construct: made in house; host or cells: transiently transfected mammalian cells (HEK293T inferred from 'as described for M4')
T2 sequence (O43614 1-444 F28L/Y91L/I308V): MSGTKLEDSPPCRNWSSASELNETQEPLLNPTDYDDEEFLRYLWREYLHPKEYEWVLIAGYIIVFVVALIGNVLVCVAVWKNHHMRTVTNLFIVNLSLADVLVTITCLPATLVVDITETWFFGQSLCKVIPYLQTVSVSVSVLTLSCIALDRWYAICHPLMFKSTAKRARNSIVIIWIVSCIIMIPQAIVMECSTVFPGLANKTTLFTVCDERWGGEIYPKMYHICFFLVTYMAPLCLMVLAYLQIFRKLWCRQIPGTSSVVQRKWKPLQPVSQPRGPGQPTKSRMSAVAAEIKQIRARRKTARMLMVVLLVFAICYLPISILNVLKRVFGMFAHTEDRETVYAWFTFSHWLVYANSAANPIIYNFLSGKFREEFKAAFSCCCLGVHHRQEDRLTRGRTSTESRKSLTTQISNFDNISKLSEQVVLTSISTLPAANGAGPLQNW
Method: as §4, §5, §6

B1: Y369: rat neurotensin receptor NTS1 mutant, residue 7.53 (Y369) to alanine (protein, listed as Rattus norvegicus)
chain: MHLNSSVPQGTPGEPDAQPFSGPQSEMEATFLALSLSNGSGNTSESDTAGPNSDLDVNTDIYSKVLVTAIYLALFVVGTVGNSVTAFTLARKKSLQSLQSTVHYHLGSLALSDLLILLLAMPVELYNFIWVHHPWAFGDAGCRGYYFLRDACTYATALNVASLSVERYLAICHPFKAKTLMSRSRTKKFISAIWLASALLAIPMLFTMGLQNRSGDGTHPGGLVCTPIVDTATVKVVIQVNTFMSFLFPMLVISILNTVIANKLTVMVHQAAEQGRVCTVGTHNGLEHSTFNMTIEPGRVQALRHGVLVLRAVVIAFVVCWLPYHVRRLMFCYISDEQWTTFLFDFYHYFYMLTNALFYVSSAINPILANLVSANFRQVFLSTLACLCPGWRHRRKKRPTFSRKPNSMSSNHAFSTSATRETLY
[1]
  thermostability (agonist binding at the destabilising temperature compared to wild type): increased agonist binding compared to the wild type receptor

B2: CRF1 I163A: human CRF1 mutant, I2.58 to alanine (I163A) (protein, UniProt P34998 24-415, looked up, variant I163A)
Corticotropin-releasing …: T1 sequence (P34998 24-415 I163A)
CRF1 [2]
  increase of thermal stability: 3.9 (±0.5) ° C.
CRF1 [3]
  Tm: 30.7 °C

B3: OX2Y91L (protein, UniProt O43614 1-444, looked up, variant Y91L)
Orexin receptor type 2: T2 sequence (O43614 1-444 F28L/Y91L/I308V) with L28F, V308I
OX2 receptor [4]
  Tm: 29.69 °C
OX2 receptor [5]
  increase of Tm: 1 °C
